The data set in a line: amyloid nucleation score (Sup35N fusion, yeast selection) (log enrichment); library NNK1; higher = more nucleation; inactive = no reads after selection. The procedure, abridged:
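The nucleation score is the DiMSum log enrichment of output over input reads, centred on the mode score of non-aggregating sequences. Only sequences with 100 or more input reads were scored, using Illumina sequencing of input and output plasmid inserts. Psi-negative yeast expressing Sup35N fused to peptides of 20 random codons were induced 24 hours with 100 μM copper sulfate and grown 7 days at 30°C on medium lacking adenine and uracil.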

± gives the uncertainty stated by the source.

On to RGYSSTPRFVNIACYMVQSL, for which the amyloid nucleation score was determined as 2.45 ± 0.26.
Then KWGVCVLTHLGRYWLLLGCG, with -0.145 ± 0.66; and ITKGAPSLYYMCRRGEDACS, with 0.523 ± 0.44.
For INYNWCQTRG the value was -0.867 ± 0.39; for CSIVYCMCGLCAS, 8.43 ± 0.055.
Then INHLKGVSRYSVPVLLGFIA, with 0.124 ± 0.45.
As for DVRGRHRCRFGSQQTKRQS, the amyloid nucleation score amounted to 0.586 ± 0.8.
Then RFIWFLVYVNTCYARC, with 2.86 ± 0.25.
LSWCLPCLSARSVRSRRMVT: the amyloid nucleation score came to 0.161 ± 0.25.
For SPCWSHF the value was “inactive”; for QSAAFIIDLLTVFRKMEEVM, -0.666 ± 0.66; for YWGPKDAMGMSFIVSWDGPP, 0.367 ± 0.31.
Then RQSQRWYFLLCGYYKAFFRR, with 1.63 ± 0.73; and NCPFEW, with -0.116 ± 0.55.
Then VHTMSLWCDISQLIVPVNRV, with 1.1 ± 0.52; and TFWTLVQQATVKHMLYGTFL, with -0.663 ± 1.9; and ISEMVEWSISPTLGETVTCM, with 0.363 ± 0.49.
Regarding LHIFLTLHNQHVWARNGGKL, the amyloid nucleation score is 0.603 ± 0.35.
For RTSPPFNTVYYTGEYEIIEI the value was -0.353 ± 0.54; for FGMKMGMMRVV, -0.688 ± 1.2.
The substance SVNLGGHAGCCGCWAYGGFR returned an amyloid nucleation score of 0.851 ± 0.37.
As to TRMLLMIL, the amyloid nucleation score is -0.921 ± 2.4.
For EWGNRRVFYVVMDGSRCPAS, the amyloid nucleation score came to 0.1 ± 0.16.
WLNFWILMSVMFVNMSSLFP: the amyloid nucleation score was -1.01 ± 0.52.
For RREFYFLLVIALKSV the value was 1.32 ± 0.31; for NSFKCFNDRNEVALMITHRE, -0.526 ± 0.77; for QVRGSASYSVHWINELFFKQ, 1.64 ± 0.32.
As for HPFKLGVFNISGESLSTA, the amyloid nucleation score is -0.802 ± 2.1.
In turn, IGSMNCRLLVTWKMVWLVPH returned an amyloid nucleation score of -0.187 ± 0.5.
In turn, KRYSGDIDMTSREMGLFK registered an amyloid nucleation score of 0.356 ± 0.16.
Regarding SLPRPIMFSLVVIILYNFVR, the amyloid nucleation score was -0.333 ± 0.47.
Turning to NLICDLGNSVTMSVRDDQTV, the amyloid nucleation score was -0.013 ± 0.36.
Then GRISRFLFQRDNVWPSLAKQ, with 0.171 ± 0.52; and PERNNEYHVMLTRHRCHQGC, with -1.41 ± 2.4; and SFKGYVSWVGSPHRAVG, with 0.425 ± 0.86.
Regarding LRPSPKVWHDFWGMM, the amyloid nucleation score was found to be 0.437 ± 0.47.
Then TNGLCFI, with -0.833 ± 0.74; and RSRSGC, with 0.441 ± 0.51.
HVGHCLLLKFQSIWDFWCVC: the amyloid nucleation score is 0.237 ± 0.69.
The substance VHLTSPYHCRVPDMNSCYGS had an amyloid nucleation score of 0.371 ± 0.91.
Then ISALRFSTLRSCGAGPGVAS, with -0.859 ± 1.2; and SHDFVVIISNCR, with 5.57 ± 0.093.
Then LYTNSLRF, with -0.419 ± 0.64; and FIRWKLVYYDIMKCPSCSHH, with -0.187 ± 0.61.
For SFSLSLVFRISPDGLGHFLQ the value was 0.412 ± 0.3.
The substance GSTRVRTCGRKLMCALS came in with an amyloid nucleation score of 0.835 ± 0.24.
For ARAGWRSYYRGHLCSESANE the value was 0.273 ± 0.65; for SGYSRGKEEQKHQFA, 0.137 ± 0.6; for TRNVSVTAVMED, 0.938 ± 0.81.
Substance SIVRTDDIARLSLMLGRRSV had an amyloid nucleation score of -0.724 ± 0.56.
STFAAFSNTVYASCQYLLNG came in with an amyloid nucleation score of -1.14 ± 0.93.
For PIGLMGFRLSSICLSIRTLP the value was -0.469 ± 0.65.
Then VNASELEYKFTLLVQWMIRR, with 1.31 ± 0.32; and YVLKCKNILMYEYLNEVKIS, with 0.219 ± 0.27; and FWKTLQIFRTMVVN, with 0.055 ± 0.9.
For the substance HWTMYLVQLDSDSAIFFGHM, the amyloid nucleation score turned out to be 2.52 ± 0.15.
Then WVRYFPCRIII, with -1.27 ± 0.79; and FCNRFRCSGSVRWLREVEYM, with 0.291 ± 0.46.
Regarding EGSPKICPRYST, the amyloid nucleation score came out at 0.088 ± 0.6.
Then TRCRWLQ, with 0.931 ± 0.93; and FQSDYRRRMFVMSD, with -1.03 ± 1.4.
Then AWDYNKN, with 5.69 ± 0.075; and HSAGVVDALRCYNFYV, with -0.102 ± 0.39.
For FSLFTWSWFR the value was 0.625 ± 0.42; for GPVVLRTGLLVRFTYHIGRE, 1.15 ± 0.24.
As to RFYIGIVIQRTYGRC, the amyloid nucleation score is 2.79 ± 0.071.
Substance RFQGGWSRF had an amyloid nucleation score of 3.68 ± 0.11.
For WRVNVEVKYFAEKTVQECWV the value was 0.817 ± 0.23.
In turn, SYLHMFTMFV registered an amyloid nucleation score of -0.654 ± 0.52.
For ILATMQFLCQMGSERNQARA the value was 0.454 ± 0.26.
The substance MQVVKIGKLFG registered an amyloid nucleation score of -0.112 ± 0.39.
Then LVNRVKRCAMNVHLSIGGDR, with -0.479 ± 0.44; and MCPTLVLSA, with “inactive”.
For LVCDQLLIITLKCDERHQVT the value was 7.474 ± 0.074.
Then LRRVMFHRGMCHSVVRNGFG, with -1.48 ± 1.6; and TMFIFCWKTGVCLYCNLFTS, with -0.591 ± 0.4.
SIRTLQDNSTSSENFKVESV yielded an amyloid nucleation score of 0.273 ± 0.64.
Then LLFTNEKHNSLVNQGTPEWC, with 0.13 ± 0.9.
For LKAHPSVTSCPVRSLI the value was -0.281 ± 0.39; for SWPLWEVMPRWGARDRGWVG, 0.553 ± 0.93.
Substance NWCVLALIN showed an amyloid nucleation score of 1.83 ± 0.43.
Then RCTGLRLRVLGAILIFIHYV, with “inactive”; and ISWMLLVLSFSMTVLNIRWN, with -0.199 ± 0.33.
LGLDGCSSMLEEDFCR: the amyloid nucleation score was 0.45 ± 0.52.
Turning to LVSQLSFACN, the amyloid nucleation score was found to be 0.92 ± 0.83.
For the substance SLRDACFGVNI, the amyloid nucleation score was -0.091 ± 0.29.
The substance MYVSDCCSCICMVVDTRSIF showed an amyloid nucleation score of 0.292 ± 0.39.
As to LSKYGVCVALLCIWMGHNWC, the amyloid nucleation score is 0.22 ± 0.2.
For FWVSCRSMCEIRVSLKLRLN the value was 0.719 ± 0.59; for RIGGETGCV, 0.216 ± 0.27; for TSYLLCMEQYYLKEISCRDS, 0.688 ± 0.38.
ESGYVLESSVQVENKFIFTT had an amyloid nucleation score of -2.27 ± 2.4.
The substance FQHLNMVTAFSDSRGIPYML registered an amyloid nucleation score of 1.05 ± 0.38.
For VQCVHLSNME the value was 0.105 ± 0.72; for RFARHCSRIS, 0.769 ± 0.36.
LVMHVSWNVFIAVVLIFKDG: the amyloid nucleation score came to 0.375 ± 0.43.
For SKSRLL the value was 0.006 ± 0.4.
As to CLSYIVVALVRCTDIYYP, the amyloid nucleation score is 0.763 ± 0.42.
For SYESSLNGRISFRNGERLLC the value was 0.115 ± 0.42; for KVVDNAYSSDSLYFVGLFFW, 1.25 ± 0.84; for GASGGVTASLLKTRITVTWV, -0.271 ± 0.79.
For the substance RLNLSLSVR, the amyloid nucleation score worked out at 0.517 ± 0.55.
Consider NSYKNYCVLCECRC, for which the amyloid nucleation score amounted to 4.21 ± 0.07.
In turn, DACCYDECVS showed an amyloid nucleation score of 0.782 ± 0.25.
Regarding SFFWDT, the amyloid nucleation score was -0.524 ± 0.51.
Then TKMCF, with 0.105 ± 0.41.
Then RHADIWSDFPR, with 1.53 ± 0.7.
For TPNQSRFPNAVMTDTVTSFS the value was 0.214 ± 0.81; for IYDTGVAFDCSLM, “inactive”.
Substance SKSTYSLIGLGTFISRFNGN returned an amyloid nucleation score of 1.03 ± 0.36.
For SLVDGSHNNFRGWVPIVVQG the value was -0.079 ± 0.99; for MSLLALWCLSVRCTVVLVRT, -0.003 ± 0.48; for WGFRENETMV, -0.742 ± 0.46.
Then YGVRFGVFLSTCLNFSGEYR, with -0.178 ± 0.42; and RIFFYTISYPLILIKVFCYL, with “inactive”; and NRVLLSEAKSQFIG, with 0.366 ± 0.59.
Then TFSGFYGVYYNQILVGSLIQ, with “inactive”; and KFNIVILLINCAPAFSEMYL, with 5.475 ± 0.05; and LPDTCCR, with 0.994 ± 0.46.
The substance ILCLKTDGLGDESRGVSEAG came in with an amyloid nucleation score of 0.27 ± 0.75.
Then IWNIVWNNLVYVNFSNLGGV, with 3.73 ± 0.08; and YVVCRTFSVPAYSLRLQLRR, with 0.353 ± 0.26; and IELSILSGRRDL, with -0.406 ± 0.2.
For HLNNCLTRRNWTRYFSRVAP the value was 0.95 ± 0.58; for RTCYNRDTEMSRGCYTMRVA, -0.554 ± 0.77; for VSYSGQSLICYWVLEASFVV, -0.05 ± 0.31.
Then RSMSTIRIEGSESTSFISS, with -0.812 ± 1.7; and CTARLIA, with 0.13 ± 0.28; and LGRGSGYRVLVMYLSVHC, with 0.164 ± 0.29.
For the substance TFYEHMVCGRHQSQAVWLVK, the amyloid nucleation score stood at 0.169 ± 0.6.
Then HGAFMVPT, with 0.895 ± 0.79; and HRRSTHGMYPVPYCSSINH, with 0.687 ± 0.48.
As to VISVNLGFFPSFVIRASVAS, the amyloid nucleation score worked out at 5.45 ± 0.079.
Then RLKHDWWITVCLYRVQLNTV, with 1.59 ± 0.55.
As for FHNVFCFSYFT, the amyloid nucleation score came to 7.21 ± 0.078.
Then VELQYDLYCFSSFADPLS, with 1.29 ± 0.6.
For DVLSSNVFRNWVMVRSYSRQ the value was 0.795 ± 0.52; for AIYMLHRNGGGGVCEAEAVR, -0.38 ± 0.69; for CCYNFYDSGANCHLFFVSFR, -0.817 ± 1.7.
For NPPGGDIYEC the value was -0.721 ± 0.53.
The substance RLNWVYSRNNASLSGVYMKR yielded an amyloid nucleation score of 0.116 ± 0.24.

For the origin of these results see the supplement of paper PMC12042874.
